We go through 125 sequences from the supplement of paper PMC9112550, “Optimization of the antimicrobial peptide Bac7 by deep mutational scanning” (BMC Biology, 2022).

The test system of this data set is Escherichia coli TOP10. The data set is described as follows: shrunken log2 fold change of peptide-encoding DNA abundance (4.5 h post-induction vs induction); higher = less antimicrobial activity (less host growth inhibition). Particulars: time post-induction: 4.5 h; library: site-saturation at positions 5, 18, 19, 20.
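Further: peptides expressed intracellularly from a pBAD plasmid library in pooled LB shake-flask culture, induced with 0.3% L-arabinose, DNA abundance read by NGS, three biological replicates, DESeq2 with apeglm shrinkage.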

With RRIRDRPPRLPRPRPRPYMKPRP, the “shrunken log2 fold change” value was -0.152.
Then RRIRMRPPRLPRPRPRPKLFPRP, with 0.244.
As to RRIRDRPPRLPRPRPRPLSMPRP, the “shrunken log2 fold change” value is -0.283.
Under RRIRMRPPRLPRPRPRPRMQPRP stands 0.598; under RRIRSRPPRLPRPRPRPGDAPRP, 0.298.
RRIRDRPPRLPRPRPRPVCQPRP: the “shrunken log2 fold change” value came to 0.0526.
Under RRIRSRPPRLPRPRPRPLTRPRP stands 0.0286.
Under RRIRCRPPRLPRPRPRPMFYPRP stands -0.525; under RRIRFRPPRLPRPRPRPIKRPRP, 0.988; under RRIRRRPPRLPRPRPRPKCMPRP, -0.172.
Take RRIRTRPPRLPRPRPRPDALPRP: the “shrunken log2 fold change” value came out at 0.162.
Turning to RRIRTRPPRLPRPRPRPWMLPRP, the “shrunken log2 fold change” value is -0.0281.
As to RRIRLRPPRLPRPRPRPDQPPRP, the “shrunken log2 fold change” value is -0.129.
As to RRIRDRPPRLPRPRPRPLKIPRP, the “shrunken log2 fold change” value was -0.297.
Then RRIRCRPPRLPRPRPRPSQAPRP, with -0.0139; and RRIRWRPPRLPRPRPRPVPDPRP, with -0.101; and RRIRERPPRLPRPRPRPKCCPRP, with -0.191.
On to RRIRIRPPRLPRPRPRPSTFPRP, for which the “shrunken log2 fold change” value was -0.329.
Regarding RRIRCRPPRLPRPRPRPMNTPRP, the “shrunken log2 fold change” value was -0.727.
Turning to RRIRARPPRLPRPRPRPMSLPRP, the “shrunken log2 fold change” value is -0.229.
Then RRIRKRPPRLPRPRPRPEAFPRP, with 0.434; and RRIRGRPPRLPRPRPRPKFPPRP, with 0.251.
On to RRIRARPPRLPRPRPRPNDTPRP, for which the “shrunken log2 fold change” value was -0.283.
Consider RRIRQRPPRLPRPRPRPCFSPRP, for which the “shrunken log2 fold change” value was -0.0347.
Take RRIRARPPRLPRPRPRPPRSPRP: the “shrunken log2 fold change” value worked out at 1.12.
For RRIRGRPPRLPRPRPRPNVKPRP, the “shrunken log2 fold change” value came out at 0.292.
Take RRIRVRPPRLPRPRPRPILVPRP: the “shrunken log2 fold change” value was -0.00597.
Consider RRIRWRPPRLPRPRPRPVMAPRP, for which the “shrunken log2 fold change” value came to 0.171.
On to RRIRRRPPRLPRPRPRPWTNPRP, for which the “shrunken log2 fold change” value was 0.0119.
Regarding RRIRVRPPRLPRPRPRPMSHPRP, the “shrunken log2 fold change” value was 0.171.
On to RRIRWRPPRLPRPRPRPERHPRP, for which the “shrunken log2 fold change” value was 0.277.
Turning to RRIRFRPPRLPRPRPRPEVSPRP, the “shrunken log2 fold change” value is -0.149.
On to RRIRFRPPRLPRPRPRPPGAPRP, for which the “shrunken log2 fold change” value amounted to 0.847.
For the sequence RRIRARPPRLPRPRPRPGEGPRP, the “shrunken log2 fold change” value is 1.02.
As to RRIRYRPPRLPRPRPRPAAAPRP, the “shrunken log2 fold change” value was found to be 0.455.
RRIRMRPPRLPRPRPRPPVGPRP: the “shrunken log2 fold change” value worked out at 1.06.
As for RRIRRRPPRLPRPRPRPCPTPRP, the “shrunken log2 fold change” value was determined as 0.288.
Regarding RRIRPRPPRLPRPRPRPFHMPRP, the “shrunken log2 fold change” value is -0.301.
For RRIRCRPPRLPRPRPRPNENPRP, the “shrunken log2 fold change” value was -0.0814.
Then RRIRNRPPRLPRPRPRPWVLPRP, with 0.0737; and RRIRERPPRLPRPRPRPQQMPRP, with -0.237.
Regarding RRIRKRPPRLPRPRPRPLPEPRP, the “shrunken log2 fold change” value came to 0.351.
Then RRIRHRPPRLPRPRPRPMQLPRP, with -0.366; and RRIRMRPPRLPRPRPRPRNHPRP, with 0.263.
Consider RRIRYRPPRLPRPRPRPQKFPRP, for which the “shrunken log2 fold change” value is -0.0224.
As to RRIRFRPPRLPRPRPRPHHTPRP, the “shrunken log2 fold change” value is -0.597.
As for RRIRWRPPRLPRPRPRPELWPRP, the “shrunken log2 fold change” value came out at 0.729.
With RRIRDRPPRLPRPRPRPELFPRP, the “shrunken log2 fold change” value is 0.184.
As for RRIRCRPPRLPRPRPRPWHNPRP, the “shrunken log2 fold change” value is -0.244.
In the case of RRIRERPPRLPRPRPRPNPHPRP, the “shrunken log2 fold change” value is -0.234.
Under RRIRFRPPRLPRPRPRPTIVPRP stands 0.0438; under RRIRFRPPRLPRPRPRPTSWPRP, 0.3.
Then RRIRYRPPRLPRPRPRPTYKPRP, with -1.17; and RRIRWRPPRLPRPRPRPNNMPRP, with -0.345.
Turning to RRIRKRPPRLPRPRPRPCCIPRP, the “shrunken log2 fold change” value was 0.243.
For the sequence RRIRERPPRLPRPRPRPGCGPRP, the “shrunken log2 fold change” value was determined as 0.307.
Regarding RRIRTRPPRLPRPRPRPHCFPRP, the “shrunken log2 fold change” value was -0.102.
RRIRHRPPRLPRPRPRPDDWPRP: the “shrunken log2 fold change” value is -0.0115.
Regarding RRIRMRPPRLPRPRPRPPRQPRP, the “shrunken log2 fold change” value was 1.43.
Under RRIRDRPPRLPRPRPRPTIDPRP stands 0.607; under RRIRRRPPRLPRPRPRPFFTPRP, 0.501.
For RRIRMRPPRLPRPRPRPKNPPRP, the “shrunken log2 fold change” value was 0.145.
RRIRLRPPRLPRPRPRPACDPRP: the “shrunken log2 fold change” value is 0.15.
Then RRIRQRPPRLPRPRPRPYSYPRP, with -0.337; and RRIRMRPPRLPRPRPRPAIWPRP, with 1.36; and RRIRLRPPRLPRPRPRPYTRPRP, with -0.0648.
Then RRIRYRPPRLPRPRPRPALLPRP, with -0.0984; and RRIRTRPPRLPRPRPRPSRKPRP, with 0.0182; and RRIRMRPPRLPRPRPRPNRPPRP, with -0.0884.
With RRIRQRPPRLPRPRPRPPDGPRP, the “shrunken log2 fold change” value was determined as 0.351.
Regarding RRIRLRPPRLPRPRPRPFKHPRP, the “shrunken log2 fold change” value was -0.156.
In the case of RRIRCRPPRLPRPRPRPSVLPRP, the “shrunken log2 fold change” value came out at 0.0648.
As to RRIRERPPRLPRPRPRPQVYPRP, the “shrunken log2 fold change” value is -0.023.
For the sequence RRIRQRPPRLPRPRPRPNARPRP, the “shrunken log2 fold change” value was -0.0902.
Consider RRIRVRPPRLPRPRPRPCIFPRP, for which the “shrunken log2 fold change” value was -0.0604.
As to RRIRQRPPRLPRPRPRPAVDPRP, the “shrunken log2 fold change” value stood at 0.963.
Then RRIRERPPRLPRPRPRPFIWPRP, with 0.0296; and RRIRKRPPRLPRPRPRPGSTPRP, with 0.131; and RRIRKRPPRLPRPRPRPVKKPRP, with 0.505.
In the case of RRIRERPPRLPRPRPRPDFWPRP, the “shrunken log2 fold change” value worked out at 0.214.
Then RRIRPRPPRLPRPRPRPWLVPRP, with 0.159; and RRIRARPPRLPRPRPRPDYQPRP, with -0.0168; and RRIRYRPPRLPRPRPRPHHTPRP, with -0.418.
Consider RRIRWRPPRLPRPRPRPLWTPRP, for which the “shrunken log2 fold change” value worked out at 0.0621.
Take RRIRDRPPRLPRPRPRPHMDPRP: the “shrunken log2 fold change” value was 0.0662.
Take RRIRPRPPRLPRPRPRPPYGPRP: the “shrunken log2 fold change” value is -0.268.
Under RRIRNRPPRLPRPRPRPSFPPRP stands -0.19.
Turning to RRIRHRPPRLPRPRPRPVVWPRP, the “shrunken log2 fold change” value was 0.524.
Turning to RRIRNRPPRLPRPRPRPTWIPRP, the “shrunken log2 fold change” value is -0.0601.
With RRIRTRPPRLPRPRPRPCDTPRP, the “shrunken log2 fold change” value was -0.116.
With RRIRIRPPRLPRPRPRPSFCPRP, the “shrunken log2 fold change” value is -0.656.
Consider RRIRDRPPRLPRPRPRPEFEPRP, for which the “shrunken log2 fold change” value was 0.824.
Consider RRIRMRPPRLPRPRPRPWGMPRP, for which the “shrunken log2 fold change” value stood at 0.187.
As for RRIRRRPPRLPRPRPRPIATPRP, the “shrunken log2 fold change” value came to 0.0769.
RRIRKRPPRLPRPRPRPGNRPRP: the “shrunken log2 fold change” value was determined as 0.143.
Turning to RRIRLRPPRLPRPRPRPIDPPRP, the “shrunken log2 fold change” value was -0.379.
RRIRFRPPRLPRPRPRPEHWPRP: the “shrunken log2 fold change” value was determined as 0.0716.
As for RRIRKRPPRLPRPRPRPTHNPRP, the “shrunken log2 fold change” value amounted to 0.299.
Under RRIRVRPPRLPRPRPRPSGWPRP stands 0.16.
RRIRPRPPRLPRPRPRPAGCPRP: the “shrunken log2 fold change” value was 0.386.
For RRIRGRPPRLPRPRPRPWYYPRP, the “shrunken log2 fold change” value was -0.148.
RRIRERPPRLPRPRPRPPTPPRP: the “shrunken log2 fold change” value was 0.192.
For RRIRVRPPRLPRPRPRPMPRPRP, the “shrunken log2 fold change” value came out at 0.24.
Under RRIRLRPPRLPRPRPRPIMSPRP stands -0.2.
As to RRIRCRPPRLPRPRPRPSYVPRP, the “shrunken log2 fold change” value was -0.786.
Turning to RRIRLRPPRLPRPRPRPCDKPRP, the “shrunken log2 fold change” value is -0.304.
For the sequence RRIRYRPPRLPRPRPRPKHKPRP, the “shrunken log2 fold change” value was -0.545.
Take RRIRIRPPRLPRPRPRPMFLPRP: the “shrunken log2 fold change” value is -0.624.
On to RRIRCRPPRLPRPRPRPVSTPRP, for which the “shrunken log2 fold change” value is -0.104.
As for RRIRIRPPRLPRPRPRPNFWPRP, the “shrunken log2 fold change” value is -0.0359.
RRIRPRPPRLPRPRPRPTWLPRP: the “shrunken log2 fold change” value stood at 0.522.
Consider RRIRKRPPRLPRPRPRPRCQPRP, for which the “shrunken log2 fold change” value came out at 0.099.
Turning to RRIRTRPPRLPRPRPRPWYWPRP, the “shrunken log2 fold change” value was -0.0177.
With RRIRKRPPRLPRPRPRPARFPRP, the “shrunken log2 fold change” value worked out at 0.396.
Take RRIRARPPRLPRPRPRPQYWPRP: the “shrunken log2 fold change” value is -0.167.
Take RRIRMRPPRLPRPRPRPASQPRP: the “shrunken log2 fold change” value amounted to 0.174.
Turning to RRIRYRPPRLPRPRPRPNKQPRP, the “shrunken log2 fold change” value was -0.0515.
Turning to RRIRWRPPRLPRPRPRPIVPPRP, the “shrunken log2 fold change” value turned out to be 0.138.
RRIRERPPRLPRPRPRPCGNPRP: the “shrunken log2 fold change” value is -0.00264.
As for RRIRWRPPRLPRPRPRPGEGPRP, the “shrunken log2 fold change” value worked out at 0.154.
On to RRIRHRPPRLPRPRPRPFYYPRP, for which the “shrunken log2 fold change” value was -0.0287.
Take RRIRSRPPRLPRPRPRPQIAPRP: the “shrunken log2 fold change” value was -0.102.
In the case of RRIRRRPPRLPRPRPRPKDYPRP, the “shrunken log2 fold change” value is -0.485.
For RRIRARPPRLPRPRPRPEHTPRP, the “shrunken log2 fold change” value is 0.0124.
With RRIRPRPPRLPRPRPRPRINPRP, the “shrunken log2 fold change” value is -0.16.
